# In patent US20230203172A1 (SHANGHAI MABGEEK BIOTECH, published 2023):
# Positions count from the first letter of the chain named.
# B1: murine anti-hIL-4R alpha monoclonal antibody 29 (antibody, V domains shown)
# VH: EVQLVESGGGLVKPGGSLKLSCAASGFTFSDYGMHWVRQAPEKGLEWVAYINSGSSKIYHADTVKGRFTISRDNAKNTLFLQMTSLRSEDTAMYYCARFPTVVAARYPMDYWGQGTSVTVSS
# VL: DIQMTQTPSSLSASLGDRVTISCRASQDISNYLNWYQQKPDGTVKLLIYFTSRLHSGVPSRFSGGGSGTDYSLTISNLEQEDIATYFCQQGNTLPYTFGGGTKLEIK
# notes: Mouse hybridoma antibody purified on ProteinG
# B2: murine anti-hIL-4R alpha monoclonal antibody 120 (antibody, V domains shown)
# VH: B1 VH with N52S, S56T, K57T, H60Y, A75G, F99I, P100S, A105K, P108A
# VL: B1 VL with P8A, F50Y, G65S, G91I, T93A, Y96L, G100A, I106L
# notes: as for B1
# B3: murine anti-hIL-4R alpha monoclonal antibody 136 (antibody, V domains shown)
# VH: B1 VH with N52S, S56T, K57T, H60Y, A75G, F99I, P100S, A105K, P108A
# VL: B1 VL with P8A, F50Y, G65S, G91I, T93A, Y96L, G100A, I106L
# notes: as for B1
# B4: murine anti-hIL-4R alpha monoclonal antibody 131 (antibody, V domains shown)
# VH: B1 VH with N52S, K57T, H60Y, F99I, P100S, A105K, P108A
# VL: B1 VL with P8A, F50Y, G65S, Q90E, G91V, T93M, Y96L, G100A, I106L
# notes: as for B1
# B5: murine anti-hIL-4R alpha monoclonal antibody 81 (antibody, V domains shown)
# VH: DVQLQQSGPELLKPGASVKIPCQASGYTFTDYNMDWVKQSHGKNLEWIGNINPNNGGTFYNQKFKGKATLTVDKSSSTAYMELRSLTSEDTAVYYCGRGGLRRRGFMDYWGQGTSVTVSS
# VL: QIVLSQSPAILSASPGEKVTMTCRASSSVIYIHWYQQKPGSSPKPWIYAASNLASGVPARFSGSGSGTSYSLTISRVEAEDAATYYCQQWSVNPPTFGGGTKLEIK
# notes: as for B1
# B6: murine anti-hIL-4R alpha monoclonal antibody 75 (antibody, V domains shown)
# VH: B5 VH with D1E, L12V, Q23K, N44S, N50D, G57N, T58I, F59L, Y60F, M81V
# VL: B5 VL with I30S, I32M, V92S
# notes: as for B1
# B7: murine anti-hIL-4R alpha monoclonal antibody 228 (antibody, V domains shown)
# VH: B5 VH
# VL: B5 VL
# notes: as for B1
# B8: murine anti-hIL-4R alpha monoclonal antibody 54 (antibody, V domains shown)
# VH: B5 VH with D1E, L12V, Q23K, N44S, N50D, G57N, T58I, F59L, Y60F, M81V
# VL: B5 VL with I30S, I32M, V92S
# notes: as for B1
# B9: murine anti-hIL-4R alpha monoclonal antibody 236 (antibody, V domains shown)
# VH: EVQLQQSGPELVKPGASVKIPCKASGYTFTDYNVDWVKQSHGQSLDWIGTINPNNGGILSNQKFKGKATLTVDTSSSTAYMELRSLTSEDTAVYYCGRGGLRRRGFMDYWGQGTSVTVSS
# VL: B5 VL with Q36Y, P39A, A54P, V92S
# notes: as for B1
# B10: murine anti-hIL-4R alpha monoclonal antibody 83 (antibody, V domains shown)
# VH: EVQLQQSGPELVKPGASVKIPCKASGYTFTDYNMDWVKQSRGKSLEWIGTINPNNGDTMYNQKFKDKATLTVDKSSTTAYMELRSLTSEDTAVYYCGRGGLRRRGFMDYWGRGTSVTVSS
# VL: B5 VL with A50I, S71F, A79V
# notes: as for B1
# B11: murine anti-hIL-4R alpha monoclonal antibody 57 (antibody, V domains shown)
# VH: B9 VH with V34M, Q43K, D46E, T50D, G57N, S60F, T74K, M81V
# VL: B5 VL with I30S, I32M, V92S
# notes: as for B1
# B12: murine anti-hIL-4R alpha monoclonal antibody 55 (antibody, V domains shown)
# VH: B5 VH
# VL: B5 VL with A59V
# notes: as for B1
# B13: murine anti-hIL-4R alpha monoclonal antibody 100 (antibody, V domains shown)
# VH: B5 VH with M107L
# VL: B5 VL with A50V, A59V
# notes: as for B1
# B14: murine anti-hIL-4R alpha monoclonal antibody 84 (antibody, V domains shown)
# VH: B5 VH with P9R, P14R
# VL: B5 VL
# notes: as for B1
# B15: murine anti-hIL-4R alpha monoclonal antibody 88 (antibody, V domains shown)
# VH: B5 VH with N50T, K63N, Y80C, E89D
# VL: B5 VL
# notes: as for B1
# B16: murine anti-hIL-4R alpha monoclonal antibody 64 (antibody, V domains shown)
# VH: B5 VH with D1E, L12V, P21S, Q23K, N44S, N50T, I51T, F59L, G97A, M107V
# VL: B5 VL with I30N, I32L, A50T, V92S
# notes: as for B1
# B17: murine anti-hIL-4R alpha monoclonal antibody 59 (antibody, V domains shown)
# VH: EVQLVESGGGLVKPGGSLKLSCAASGFTFSDYGIHWVRQAPDKGLEWVAYIRSDSSIIHYADTVKGRFTISRDNAKNTLFLQMTSLRSEDTAMYYCTRGRDRGYFDYWGQGTTLTVSS
# VL: QIVLTQSPALMSASPGEKVTMTCSASSSVSYMYWYQQKPRSSPKPWIYLTSNLASGVPARFSGSGSGTSYSLTISSMEAEDAATYYCQQWTSIPFTFGSGTKLEIK
# notes: as for B1
# B18: humanized anti-hIL-4R alpha monoclonal antibody 29-Hu (antibody, human IgG4 S228P, kappa, V domains shown)
# VH: B1 VH with K13Q, K19R, E42G, T78S, F80Y, T84N, S88A, M93V, S117L
# VL: DIQMTQSPSSLSASVGDRVTITCRASQDISNYLNWYQQKPGKAPKLLIYFTSRLHSGVPSRFSGSGSGTDYTLTISSLQPEDFATYYCQQGNTLPYTFGQGTKLEIKR
# notes: Humanized, human IgG4 constant region; expressed in HEK293, purified on ProteinA
# B19: Dupilumab (antibody, V domains shown)
# VH: EVQLVESGGGLEQPGGSLRLSCAGSGFTFRDYAMTWVRQAPGKGLEWVSSISGSGGNTYYADSVKGRFTISRDNSKNTLYLQMNSLRAEDTAVYYCAKDRLSITIRPRYYGLDVWGQGTTVTVSS
# VL: DIVMTQSPLSLPVTPGEPASISCRSSQSLLYSIGYNYLDWYLQKSGQSPQLLIYLGSNRASGVPDRFSGSGSGTDFTLKISRVEAEDVGFYYCMQALQTPYTFGQGTKLEIKR
# B20: humanized anti-hIL-4R alpha monoclonal antibody 228-Hu (antibody, human IgG4 S228P, kappa, V domains shown)
# VH: QVQLVQSGAEVKKPGASVKVSCKASGYTFTDYNMDWVRQAPGQNLEWIGNINPNNGGTFYNQKFKGRATLTVDKSASTAYMELSSLRSEDTAVYYCARGGLRRRGFMDYWGQGTLVTVSS
# VL: EIVLTQSPATLSLSPGERATLSCRASSSVIYIHWYQQKPGQSPRPWIYAASNLASGVPARFSGSGSGTDYTLTISRLEPEDFAVYYCQQWSVNPPTFGQGTKLEIKR
# notes: as for B18
# Biological target: T1, human IL-4R alpha on cells (TF-1 cells; human peripheral blood mononuclear cells) (human, UniProt P24394 26-825)
# Assay: cell-based or functional assay
row,Binder,"IC50 (ng/ml), inhibition of IL-4-induced TF-1 proliferation"
1,B1,65.3 ng/mL
2,B2,59.7 ng/mL
3,B3,49.6 ng/mL
4,B4,47.1 ng/mL
5,B5,24.6 ng/mL
6,B6,29 ng/mL
7,B7,34.2 ng/mL
8,B8,57 ng/mL
9,B9,22.4 ng/mL
10,B10,36.6 ng/mL
11,B11,23.6 ng/mL
12,B12,19 ng/mL
13,B13,53.7 ng/mL
14,B14,31.3 ng/mL
15,B15,67.2 ng/mL
16,B16,43.7 ng/mL
17,B17,43.7 ng/mL

# Biological target: T1, human IL-4R alpha on cells (TF-1 cells; …)
# Assay: cell-based or functional assay
# Remark: another data set of the same source
row,Binder,"IC50 (ng/ml), inhibition of IL-4-induced TF-1 cell proliferation"
1,B18,156 ng/mL

# Biological target: T2, hIL-4R alpha-ECD-Fc (human, UniProt P24394 26-232)
# T2 construct: range 26-232; hFc at the C-terminus of the ECD; also called hIL4R alpha-ECD-hFc; hIL-4R alpha-Fc antigen
# Assay: ELISA, plate coated with 1 ug/ml hIL-4R alpha-ECD-Fc
# Procedure: The titer was tested by ELISA: an ELISA plate was coated with the hIL-4R alpha ECD-Fc antigen at a concentration of 1 μg/ml, 100 μl per well, and coated overnight at 4° C. The plates were washed twice with PBST (PBS containing 0.5% Tween-20) and then pat-dried. Each well was blocked with 200 μl of coating solution containing 1% BSA, blocked at room temperature for 4 h, pat-dried, and stored in a refrigerator at −20° C. for later use. During testing, 100 μl of mouse serum at different concentrations was added to each well of the ELISA plate, with two replicate wells, for incubation at room temperature for 1.5 h. The wells were washed with PBST for 3 times and then pat-dried. Then 100 μl of rabbit anti-mouse IgG labeled with HRP diluted with PBST by 1:10000 (purchased from Sigma) was added and the plates were incubated at room temperature for 1 h. The wells were washed with PBST for 3 times and then pat-dried. Then 100 μl of chromogenic solution was added to each well (an ELISA chromogenic solution A was mixed with a chromogenic solution B at a volume ratio of 1:1 before use) for a chromogenic reaction, and then 100 μl of 2M H2SO4 stopping solution was added to each well to terminate the reaction. The OD value of each well was immediately measured at 450 nm with a microplate reader (Molecular Device).
# Optimized murine anti-hIL-4R alpha monoclonal antibodies were purified by a ProteinG affinity chromatography column and quantified by BCA. The EC50 of anti-hIL-4R alpha monoclonal antibodies binding to hIL-4R alpha was tested by ELISA. The testing method is as described in Example 3. An ELISA plate was coated with 1 μg/ml of hIL-4R alpha-ECD-Fc antigen, and then murine anti-hIL-4R alpha monoclonal antibodies at different concentrations were added for testing.
row,Binder,EC50
1,B1,0.0076 µg/mL
2,B2,0.01 µg/mL
3,B3,0.0113 µg/mL
4,B4,0.0138 µg/mL
5,B5,0.0096 µg/mL
6,B6,0.0129 µg/mL
7,B7,0.0131 µg/mL
8,B8,0.0099 µg/mL
9,B9,0.0115 µg/mL
10,B10,0.0123 µg/mL
11,B11,0.0079 µg/mL
12,B12,0.0089 µg/mL
13,B13,0.012 µg/mL
14,B14,0.0122 µg/mL
15,B15,0.0091 µg/mL
16,B16,0.0106 µg/mL
17,B17,0.0117 µg/mL

# Biological target: T3, hIL-4R alpha-ECD-Flag (human, UniProt P24394 26-232)
# T3 construct: range 26-232; Analyte of the Biacore experiment
# Assay: SPR, Biacore T200, antibody captured on Protein-A chip, hIL-4R alpha-ECD-Flag as analyte
# Procedure: The affinity of six purified humanized antibodies was detected by Biacore T200 (GE healthcare), with the reference antibody Dupilumab as a control. The specific experimental method was as follows: a Protein-A CMS sensor chip (GE healthcare) was used, with FC1 (Flow cell 1) as a reference channel, and FC2 (Flow cell 2) as a sample channel. Humanized antibodies or control antibody were captured in the FC2 channel, and then hIL-4R alpha-ECD-Flag at different concentrations was injected. Cycling conditions were as follows: an analyte was injected into all channels of FCs at 50 μl/min for 4 min, with a dissociation time of 20 min, and 6M guanidine hydrochloride (Sinopharm Chemical Reagent Co., Ltd.) was injected at a rate of 10 μl/min for 30 s for surface regeneration. Then, signal differences and affinity for interaction between captured antibodies and non-captured antibodies were calculated by Biacore T200 Evaluation Software Ver 1.0.
Binder,Kd,koff,kon
B18,0.526 nM,0.00021 s⁻¹,398000 M⁻¹ s⁻¹
B19,0.403 nM,0.00018 s⁻¹,446000 M⁻¹ s⁻¹
B20,0.912 nM,0.000658 s⁻¹,721000 M⁻¹ s⁻¹
